From the supplement of paper PMC9170038

Tested on: MS2 coat protein
Test: apparent KD of MS2 coat protein; designed switch direction (-1 OFF switch, 1 ON switch): -1; higher = weaker reporter binding
How it was run: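 Each step of the titration lasted 0.8–1.5 h at the lowest concentration and 10–20 min at the highest. The protein, SNAP-549-labelled MS2 coat protein, went from 0.7 or 1.5 nM doubling to 3 µM over RNA switches transcribed on Illumina chips by stalled E. coli RNA polymerase. Normalised cluster fluorescence was curve-fitted, and the per-design median over clusters is given as apparent KD.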

[1] = input ligand: microRNA oligo, concentration not stated
[2] = Eterna round: R95, input ligand: FMN 200 uM
[3] = Eterna round: R95, input ligand: microRNA oligo, concentration not stated
[4] = Eterna round: R95, input ligand: none

| Sequence | apparent KD of MS2 coat protein (input ligand: FMN 200 uM) [nM] | apparent KD of MS2 coat protein [1] [nM] | apparent KD of MS2 coat protein (input ligand: none) [nM] | apparent KD of MS2 coat protein [3] [nM] | also measured |
| --- | --- | --- | --- | --- | --- |
| AGCUGUGGCCGAGGAUAUCUAAUAGUCCCAACCGAAAUAUAAUCGGACAUGAGGAUCACCCAUGUAGAGAAGGCGGUCUCAGCA [Eli eng2 - 069] (Eterna round: R96, puzzle: Exclusion NG 2) | 286 | 102 | 113 |  |  |
| AGCUGUGGCCGAGGAUAUCUGACUUCAAUAACCGAAAUAUAAUCGGACAUGAGGAUCACCCAUGUAGAGAAGGCGGUCUCAGCA [Eli eng2 - 083] (Eterna round: R96, puzzle: Exclusion NG 2) |  | 12.5 |  |  |  |
| AGCUGUGGCCGAGGAUAUCUGUCUCAUAAAACCGAAAUAUAAUCGGACAUGAGGAUCACCCAUGUAGAGAAGGCGGUCUCAGCA [Eli eng2 - 096] (Eterna round: R96, puzzle: Exclusion NG 2) |  | 15.8 |  |  |  |
| AGCUGUGGCCGAGGAUAUGACAUGAGGAUCACCCAUGUACCAGAUUAGGCCUGGUAACAGGCUCAUCAGAAGGCGGUCUCAGCA [Eli eng2 - 016] (Eterna round: R96, puzzle: Exclusion NG 2) | 13.5 | 10.7 | 14.8 |  |  |
| AGCUUUGCUGCUCGUCCCAACAUGAGGAUCACCCAUGUUCUUAUGAAACCAUCUAGCCUAGAUGGGUCUUGCCAAAG [Eternabot (Original) Solution 47] (Eterna round: R97, puzzle: Sensor, turn-off variant 1) | 27.1 |  | 29.1 |  |  |
| AGCUUUUUGCUCGUCUUAUACAUGAGGAUCACCCAUGUAUUGGACCACAUCGAUAGAUGUGGGCCAAGAAGCAUGGG [Omdei Mir OFFv1 C2] (Eterna round: R97, puzzle: Sensor, turn-off variant 1) | 133 |  | 176 |  |  |
| AGGAAACAUGAGGAUCACCCAUGUGAGGAUAUGAAAAAGAAAAGAAAAGAAAGAAGAAUCAGAAGGCACAAAGG [Mat - Mod of Hog D1] (puzzle: Exclusion 1) |  |  |  | 32 | apparent KD of MS2 coat protein [2]: 52.9 nM; apparent KD of MS2 coat protein [4]: 45.9 nM |
| AGGAAGCAAGGAUAUACGAGGAGAAGGUGGAGAGUUAAAGGACAUGAGGAUCACCCAUGUAGAAGGUGCGAGAA [JR_Exclu2_Sub045] (puzzle: Exclusion 2) |  |  |  | 52.2 |  |
| AGGAGCAGAGGGAGAUCCAACAUGAGGAUCACCCAUGUCUCAUAAGCUUUUUGCUCAUCUUAUUGUACCUUGGUGCA [Mat - Sensor v3 - turn-off var 1 - JL Mod - D27] (puzzle: Sensor v3, turn-off variant 1) |  |  |  | 12.5 | apparent KD of MS2 coat protein [2]: 29.2 nM; apparent KD of MS2 coat protein [4]: 22.3 nM |
| AGGCUGUCAGGAUAUCUGCGCCGCUGUACGCGGCGUUAUAAAGAGAAGGGACAUGAGGAUCACCCAUGUCCUCA [EX4 B.14] (Eterna round: R97, puzzle: Exclusion 4) | 109 |  | 19.5 |  |  |
| AGGGAGUGAGGAUAUACGAAAUAAAAAGAAGGAAAAAAAGAGUAGAAGGCACAUGAGGAUCACCCAUGUGAGAA [milkweed 12] (Eterna round: R96, puzzle: Exclusion 4) |  | 16.9 |  |  |  |
| AGGGAUAAAGGAUAUACAUGAGGAUCACCCAUGUUGAGGAAGGUUAGAUGAGGAGUAAGUAGAAGGUUAGACGA [JR_Exclu3_Sub088] (puzzle: Exclusion 3) |  |  |  | 40.7 | apparent KD of MS2 coat protein [2]: 45.7 nM; apparent KD of MS2 coat protein [4]: 61.3 nM |
| AGGUCACAUGAGGAUCACCCAUGUGAGGAUAUAGACUCAAGAGCUUCGGCUCUCAAGUCUAGAAGGCGCUAUGA [EX1 #50] (Eterna round: R97, puzzle: Exclusion 1) | 26.5 |  | 28.5 |  |  |
| AGGUGCUUCUGGAAACAUGAGGAUCACCCAUGUUGAGUUAGCGAGGAUAUCGGUAACCAUUGUUAUGAGAAGGCGCAAACCAGA [Ex NG3 #37] (Eterna round: R96, puzzle: Exclusion NG 3) | 19.9 | 11.4 | 20.2 |  |  |
| AGGUGUAGAGGAUAUCUAUCCUCGCACAUGAGGAUCACCCAUGUCCUGGUCACCAAGGACGGAGAAGGCUACACCA [Omei Ex5 D20] (Eterna round: R97, puzzle: Exclusion 5) | 427 |  | 773 |  |  |
| AGUAACAGAGGAUAUACUAUUUUAUGUAUUUAUUAUUUUGAACAUGAGGAUCACCCAUGUAGAAGGCUGAAUAA [JMF 89] (puzzle: Exclusion 2) |  |  |  | 23.3 |  |
| AGUAACAGAGGAUAUACUAUUUUAUGUGUUUAUUGUUUUAAACAUGAGGAUCACCCAUGUAGAAGGCUGAAUAA [JMF 86] (puzzle: Exclusion 2) |  |  |  | 28.4 |  |
| AGUAACAGAGGAUAUACUAUUUUAUGUGUUUGUUGUUUUGAACAUGAGGAUCACCCAUGUAGAAGGCUGAAUAA [JMF 96] (puzzle: Exclusion 2) |  |  |  | 24.1 |  |
| AGUAACAGAGGAUAUACUGUUUUAUGUGUUUGUUAUUUUAAACAUGAGGAUCACCCAUGUAGAAGGCUGAAUGA [JMF 99] (puzzle: Exclusion 2) |  |  |  | 24.7 |  |
